Test results: US20220348651A1, “ENTPD2 ANTIBODIES, COMBINATION THERAPIES, AND METHODS OF USING THE ANTIBODIES AND COMBINATION THERAPIES” (Novartis AG, priority 2019, published 2022)

T1: mouse ENTPD2 (Mus musculus, UniProt O55026)
T1 construct: residues 29-462 of mouse or rat ENTPD2 (the extracellular domain); mouse IgK signal peptide (N); His6; made in house; host or cells: FreeStyle 293-F cells, transient transfection
T1 sequence (O55026 29-462): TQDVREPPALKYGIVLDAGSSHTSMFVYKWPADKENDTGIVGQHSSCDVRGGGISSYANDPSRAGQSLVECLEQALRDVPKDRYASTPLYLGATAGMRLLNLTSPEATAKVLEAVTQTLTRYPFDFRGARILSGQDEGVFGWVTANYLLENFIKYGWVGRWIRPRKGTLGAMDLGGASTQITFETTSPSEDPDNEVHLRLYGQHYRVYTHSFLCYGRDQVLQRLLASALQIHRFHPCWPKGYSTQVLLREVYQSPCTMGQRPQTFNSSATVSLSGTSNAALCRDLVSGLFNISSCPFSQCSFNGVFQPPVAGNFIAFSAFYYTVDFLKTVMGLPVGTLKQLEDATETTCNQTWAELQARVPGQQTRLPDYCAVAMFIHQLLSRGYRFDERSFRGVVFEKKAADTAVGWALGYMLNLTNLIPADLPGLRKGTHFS

T2: human ENTPD2 (Homo sapiens, UniProt Q9Y5L3)
T2 construct: residues 29-462 of human or cyno ENTPD2 were cloned into expression vector; GP67 signal peptide (N); made in house; host or cells: High Five (Trichoplusia ni) insect cells, baculovirus
T2 sequence (Q9Y5L3 29-462): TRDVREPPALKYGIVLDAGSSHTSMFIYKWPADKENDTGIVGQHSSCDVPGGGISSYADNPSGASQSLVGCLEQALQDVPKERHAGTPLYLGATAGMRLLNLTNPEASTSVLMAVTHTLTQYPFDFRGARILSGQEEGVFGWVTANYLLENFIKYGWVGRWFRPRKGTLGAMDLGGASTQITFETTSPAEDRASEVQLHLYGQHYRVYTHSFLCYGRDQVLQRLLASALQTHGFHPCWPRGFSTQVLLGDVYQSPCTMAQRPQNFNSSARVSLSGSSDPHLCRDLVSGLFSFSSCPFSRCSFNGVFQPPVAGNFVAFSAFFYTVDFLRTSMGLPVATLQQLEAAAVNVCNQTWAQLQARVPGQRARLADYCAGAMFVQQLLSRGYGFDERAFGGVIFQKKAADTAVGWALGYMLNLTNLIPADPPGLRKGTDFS


How the values were obtained:
mouse ENTPD2 = target: T1, mouse ENTPD2; assay: Antibody specificity: binding to mouse ENTPD2; details: for BIACore KD: Mouse ENTPD2
Description: Antibody specificity for mAbl-mAblO was confirmed. […] Antibodies mAb8, mAb9, and mAb10 show weak affinity to mouse ENTPD2. None of the selected antibodies bind to rat ENTPD2.

human ENTPD2 = target: T2, human ENTPD2; assay: Biacore (SPR) affinity to human ENTPD2 ECD; type: binding; details: 25° C.
Experimental: (§1) Biacore Screening: Affinity was measured by determining the kinetic rate constants using surface plasmon resonance (SPR) on a Biacore T200 or T100 with the T200 sensitivity upgrade instrument (Biacore, GE Healthcare). Antibodies were captured on CM5 sensor chips (Biacore, GE Healthcare) prepared with a mouse anti-human IgG Fc antibody (ThermoFisher catalogue #05-4200) amine coupled to the surface. […] ENTPD2 analytes were allowed to associate for 180 s and dissociate for up to 1800 s depending on the off-rate of the antibody at a flow rate of 30 μL/min. The running buffer was PBS pH 7.2 (prepared from a Corning 10X stock, cat#46-013-CM)+0.05% Tween 20. Regeneration was accomplished with 30 s injections of 3 or 4 M MgCl2 to remove all the captured antibody and remaining complex from the surface, after which fresh antibody was captured. The raw data were analyzed using Biacore T200 Evaluation Software version 1.0 and fit to a 1:1 binding model, with all parameters set to fit globally except for RI, which was set to fit locally.

[1] = system: cynomologus (cyno) ENTPD2; assay: Biacore (SPR) affinity to cyno ENTPD2 ECD; type: binding, cynomolgus monkey; details: 25° C.
Sequence of cynomologus (cyno) ENTPD2 (as listed by the source): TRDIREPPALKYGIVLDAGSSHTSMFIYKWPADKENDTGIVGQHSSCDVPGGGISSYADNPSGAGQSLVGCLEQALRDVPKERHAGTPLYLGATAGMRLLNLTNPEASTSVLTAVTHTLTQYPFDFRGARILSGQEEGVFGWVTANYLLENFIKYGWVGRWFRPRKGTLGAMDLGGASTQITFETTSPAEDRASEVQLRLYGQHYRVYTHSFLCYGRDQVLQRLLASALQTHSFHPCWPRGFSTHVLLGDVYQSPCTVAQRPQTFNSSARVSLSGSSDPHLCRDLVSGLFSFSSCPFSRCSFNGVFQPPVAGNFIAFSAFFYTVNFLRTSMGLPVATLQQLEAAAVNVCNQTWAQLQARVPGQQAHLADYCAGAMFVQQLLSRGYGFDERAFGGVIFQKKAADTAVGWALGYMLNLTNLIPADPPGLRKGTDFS
Experimental: as §1

Molecule | affinity / cross-reactivity to mouse ENTPD2 (mouse ENTPD2) | BIACore KD (mouse ENTPD2) | ka (human ENTPD2) | kd (human ENTPD2) | ka [1] | kd [1] | Kd (human ENTPD2) | Kd [1]
mAb8: anti-human ENTPD2 antibody of Table 1; VH SEQ ID NO: 91, VL SEQ ID NO: 102 (antibody, V domains shown) VH: QVQLQQSGPGLVKPSQTLSLTCAISGDSVSSSSAAWNWIRQSPSRGLEWLGRIYYRSKWYNDYAVSVKSRITINPDTSKNQFSLQLNSVTPEDTAVYYCARGSYVTSSYEGFDYWGQGTLVTVSS VL: SYELTQPLSVSVALGQTARITCSGDNLPEKYAYWYQQKPGQAPVLVIYDDNKRPSGIPERFSGSNSGNTATLTISRAQAGDEADYYCQSYGKWGWTWVFGGGTKLTVL | weak affinity | Weak binding | 290000 M⁻¹ s⁻¹ | 0.00094 s⁻¹ | 300000 M⁻¹ s⁻¹ | 0.024 s⁻¹ | – | –
mAb9: anti-human ENTPD2 antibody of Table 1; VH SEQ ID NO: 115, VL SEQ ID NO: 125 (antibody, V domains shown) VH: QVQLVQSGAEVKKPGSSVKVSCKASGGTFDSYAVSWVRQAPGQGLEWMGRIVPWLGHTQYAQKFQGRVTITADESTSTAYMELSSLRSEDTAVYYCARESPGYRYSFDVWDQGTLVTVSS VL: SYELTQPLSVSVALGQTARITCSGDAIGEKYVYWYQQKPGQAPVLVIYDDNNRPSGIPERFSGSNSGNTATLTISRAQAGDEADYYCASYDLQQARWVFGGGTKLTVL | weak affinity | – | 380000 M⁻¹ s⁻¹ | 0.0003 s⁻¹ | 990000 M⁻¹ s⁻¹ | 0.021 s⁻¹ | – | –
mAb10: anti-human ENTPD2 antibody of Table 1; VH SEQ ID NO: 132, VL SEQ ID NO: 125 (antibody, V domains shown) VH: QVQLVQSGAEVKKPGSSVKVSCKASGGTFDSYAVSWVRQAPGQGLEWMGRIVPWLGFTRYAQKFQGRVTITADESTSTAYMELSSLRSEDTAVYYCARESPGYRYSFDVWDQGTLVTVSS VL: SYELTQPLSVSVALGQTARITCSGDAIGEKYVYWYQQKPGQAPVLVIYDDNNRPSGIPERFSGSNSGNTATLTISRAQAGDEADYYCASYDLQQARWVFGGGTKLTVL | weak affinity | Weak binding | 340000 M⁻¹ s⁻¹ | 0.00024 s⁻¹ | 1.2e+06 M⁻¹ s⁻¹ | 0.018 s⁻¹ | – | –
mAb4: humanized anti-human ENTPD2 antibody from mAb16; VH SEQ ID NO: 46, VL SEQ ID NO: 57 (antibody, V domains shown) VH: QIQLQESGPGLVKPSQTLSLTCTVSGYSITSGYYWNWIRQHPGKGLEWIGYISYDADNNYNPSLKNRVTISRDTSKNQFSLKLSSVTAADTAVYYCAGGYYRYGLGSYRGSYYYVMDYWGQGTTVTVSS VL: ETVLTQSPATLSVSPGERATISCKASQSVDYEGHSYMNWYQQKPGQAPRLLIYAASNLESGIPARFSGSGSGTDFTLTISSVEPEDAATYYCQQSNEDPPTFGGGTKLEIK | – | No binding | 300000 M⁻¹ s⁻¹ | 0.00022 s⁻¹ | 140000 M⁻¹ s⁻¹ | 0.0057 s⁻¹ | – | –
mAb5: humanized anti-human ENTPD2 antibody from mAb16; VH SEQ ID NO: 46, VL SEQ ID NO: 64 (antibody, V domains shown) VH: QIQLQESGPGLVKPSQTLSLTCTVSGYSITSGYYWNWIRQHPGKGLEWIGYISYDADNNYNPSLKNRVTISRDTSKNQFSLKLSSVTAADTAVYYCAGGYYRYGLGSYRGSYYYVMDYWGQGTTVTVSS VL: ETVLTQSPATLSVSPGERATISCKASQSVDYDGNSYMNWYQQKPGQAPRLLIYAASNLESGIPARFSGSGSGTDFTLTISSVEPEDAATYYCQQSNEDPPTFGGGTKLEIK | – | No binding | 270000 M⁻¹ s⁻¹ | 0.00016 s⁻¹ | 290000 M⁻¹ s⁻¹ | 0.003 s⁻¹ | – | –
mAb3: humanized anti-human ENTPD2 antibody from mAb17; VH SEQ ID NO: 33, VL SEQ ID NO: 29 (antibody, V domains shown) VH: QVQLVQSGAEVVKPGASVKISCKASGYTFTDYNMDWVKQAPGQRLEWIGDINPKYDISTYNQQFKGKATITVDTSASTAYMELSSLRSEDTAVYYCARRGFFLYYGINYYYFDVWGQGTLVTVSS VL: EIVLTQSPATLSASPGERITLSCSASSSVSYIHWYQQKPGQAPRLLIYSTSNLASGIPARFSGSGSGTFYTLTISSVEPEDAAVYYCHQWSSYPWTFGGGTKLEIK | – | No binding | 130000 M⁻¹ s⁻¹ | 0.00016 s⁻¹ | 450000 M⁻¹ s⁻¹ | 0.00098 s⁻¹ | – | –
mAb2: humanized anti-human ENTPD2 antibody from mAb17; VH SEQ ID NO: 25, VL SEQ ID NO: 29 (antibody, V domains shown) VH: QVQLVQSGAEVVKPGASVKISCKASGYTFTDYNMDWVKQAPGQRLEWIGDINPKYDISTYNQQFKGKATITVDKSASTAYMELSSLRSEDTAVYYCARRGFFLYYGINYYYFDVWGQGTLVTVSS VL: EIVLTQSPATLSASPGERITLSCSASSSVSYIHWYQQKPGQAPRLLIYSTSNLASGIPARFSGSGSGTFYTLTISSVEPEDAAVYYCHQWSSYPWTFGGGTKLEIK | – | No binding | 110000 M⁻¹ s⁻¹ | 0.00018 s⁻¹ | 430000 M⁻¹ s⁻¹ | 0.0012 s⁻¹ | 1.7 nM | 2.8 nM
